According to the Human Domainome abundance scans (Beltran et al. 2025):

B1: Histidine--tRNA ligase, cytoplasmic, residues 8 to 45; numbered along this chain, P12081 (parent)
chain: EELVKLQGERVRGLKQQKASAELIEEEVAKLLKLKAQL

Variants of: B1
Assay: abundance fitness (aPCA) (normalised: wild type 0, dead -1); higher = more abundant; growth selection in yeast, the domain comes from the species named
Details: Homo sapiens

Abundance fitness of substitutions, site by site:
K15: R -0.1 | W -0.412 | V -0.103 | I 0.017 | G -0.274 | F -0.164 | T 0.001 | E 0.187 | A -0.107 | Q 0.061 | D -0.271 | Y -0.41 | N -0.135 | L -0.13 | H -0.127 | C -0.27 | S -0.184 | M 0.149
V11: N -0.334 | P -0.01 | G -0.121 | Y -0.552 | H -0.209 | M -0.106 | E 0.055 | T -0.127 | W -0.374 | L -0.189 | A -0.169 | Q 0.011 | C -1.51 | F -0.571 | I -0.011 | R -0.03 | S -0.238 | K -0.255
Q7: W -1.15 | M -0.452 | T -0.357 | H -0.507 | I -0.526 | R -0.649 | L -0.515 | P -0.595 | K -0.693 | S -0.433 | Y -0.706 | N -0.485 | V -0.379
L14: F -0.4 | W -0.467 | M 0.053 | P -0.248 | A 0.064 | D -0.24 | K -0.209 | N -0.479 | C -0.119 | Q -0.173 | S -0.101 | G -0.184 | T -0.334 | E 0.053 | Y -0.458 | H -0.397 | R -0.332 | I -0.263
E9: A -0.186 | M -0.232 | H -0.699 | N 0.035 | V -0.653 | P -0.631 | S -0.291 | W -0.726 | L -0.466 | F -0.684 | I -0.716 | K -0.324 | C -0.5 | D -0.001 | Q -0.379 | Y -0.816
